The target in the experiment is mouse importin α1 lacking the N-terminal importin-β-binding domain (ΔIBB-importin α1) (mouse). Kind of experiment: ITC. In general terms: Isothermal titration calorimetry measures the heat released or taken up as one component is titrated into another.

In PMC5595889 one finds Kd data, which are given here for one substance.

What is called Kd is the constant that tells how readily two partners part at equilibrium. Low readings indicate a tighter complex, high ones a looser complex. Substance influenza NLS1 peptide (1-…-13) came in with a Kd of 4.9 µM.
